From paper PMC4231788

Tests used:
[1] = target: gp140 of clade C strain CAP45.2.00.G3 (HIV-1 (clade C, strain CAP45.2.00.G3)); experiment: cryo-EM 2D comparison of trimers; 2D comparison of gp140ΔV2TV1 with full length gp140 constructs; trimeric diameters measured
[2] = target: full-length soluble trimeric gp140 immunogen from the clade C TV1 strain (HIV-1 (clade C, strain TV1)); experiment: cryo-EM structure; unliganded gp140 in vitreous ice, 0.1 mg/ml, Tris buffer 20 mM pH 7.9, 50 mM NaCl; single particle reconstruction, ~21 Å at 0.5 FSC
[3] = target: full-length soluble trimeric gp140 immunogen from the clade C TV1 strain (HIV-1 (clade C, strain TV1)); experiment: cryo-EM 2D comparison of trimers; 2D comparison of gp140ΔV2TV1 with full length gp140 constructs; trimeric diameters measured
[4] = target: gp140ΔV2TV1, clade C gp140 trimer with a 30-residue truncation in the V2 loop (HIV-1 (clade C, strain TV1)); experiment: as above
[5] = target: gp140 of clade C strain Du156.1 (HIV-1 (clade C, strain Du156.1)); experiment: as above
[6] = target: gp140 of clade C strain CAP239.2.00.G3J (HIV-1 (clade C, strain CAP239.2.00.G3J)); experiment: as above

Substance “gp140 of clade C strain CAP45.2.00.G3 (natural protein)” has a stoichiometry N [1] of 3.
“full-length soluble trimeric gp140 immunogen from the clade C TV1 strain (natural protein)” was tested, and the stoichiometry N [2] was 3 and the stoichiometry N [3] was 3.
Substance “gp140ΔV2TV1, clade C gp140 trimer with a 30-residue truncation in the V2 loop (natural protein)” has a stoichiometry N [4] of 3.
For “gp140 of clade C strain Du156.1 (natural protein)”, the stoichiometry N [5] was 3.
In the case of “gp140 of clade C strain CAP239.2.00.G3J (natural protein)”, the stoichiometry N [6] is reported as 3.
